Target: T1, Human TIGIT extracellular domain, C-terminal hexahistidine and AviTag (human), Q495A1
T1 chain: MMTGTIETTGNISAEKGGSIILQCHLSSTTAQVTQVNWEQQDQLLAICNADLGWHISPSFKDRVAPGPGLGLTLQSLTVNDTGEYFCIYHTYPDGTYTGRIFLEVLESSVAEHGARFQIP
Assay: SEC-MALS
Settings: remark: other sources report otherwise

B1: Human CD112 extracellular domain, C-terminal hexahistidine, Q92692 32-360 (ligand)
chain: QDVRVQVLPEVRGQLGGTVELPCHLLPPVPGLYISLVTWQRPDAPANHQNVAAFHPKMGPSFPSPKPGSERLSFVSAKQSTGQDTEAELQDATLALHGLTVEDEGNYTCEFATFPKGSVRGMTWLRVIAKPKNQAEAQKVTFSQDPTTVALCISKEGRPPARISWLSSLDWEAKETQVSGTLAGTVTVTSRFTLVPSGRADGVTVTCKVEHESFEEPALIPVTLSVRYPPEVSISGYDDNWYLGRTDATLSCDVRSNPEPTGYDWSTTSGTFPTSAVAQGSQLVIHAVDSLFNTTFVCTVTNAVGMGRAEQVIFVRETPNTAGAGATGG
modifications: here or on the partner: biotin on the BirA biotinylation tag (BLI and ProteOn SPR)
stoichiometry N: 1

From PMC10486284
